Data reported in paper PMC2720809 (Nature, 2009).
Values belong to the compound of their own block, whether it stands above or below them.

Legend:
[1] = biological target: ΔzfP2X4-A (zebrafish P2X4.1 receptor with amino- and carboxyl-terminal deletions) (zebrafish) (UniProt F8W463); assay: crystal structure
[2] = biological target: T1, zebrafish P2X4.1 receptor (zfP2X4) (Danio rerio, UniProt F8W463); assay: whole-cell patch clamp of transfected tsA201 cells; assay type: cell-based
T1 sequence (F8W463 1-389): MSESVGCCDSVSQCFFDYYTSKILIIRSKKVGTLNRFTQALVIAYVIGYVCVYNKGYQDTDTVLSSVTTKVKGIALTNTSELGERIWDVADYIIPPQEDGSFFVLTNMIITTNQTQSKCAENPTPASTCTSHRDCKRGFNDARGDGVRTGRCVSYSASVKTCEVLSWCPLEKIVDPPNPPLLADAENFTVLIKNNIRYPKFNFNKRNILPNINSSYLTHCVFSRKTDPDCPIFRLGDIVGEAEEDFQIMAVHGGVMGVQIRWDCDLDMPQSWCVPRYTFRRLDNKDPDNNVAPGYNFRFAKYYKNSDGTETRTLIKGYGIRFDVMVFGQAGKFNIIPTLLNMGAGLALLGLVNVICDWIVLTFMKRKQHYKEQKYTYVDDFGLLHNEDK

[3] = biological target: ΔzfP2X4-B (ΔzfP2X4-A with C51F/N78K/N187R) (zebrafish) (UniProt F8W463); assay: crystal structure

stoichiometry N [1]: 3
Compound: ΔzfP2X4-A (zebrafish P2X4.1 receptor with amino- and carboxyl-terminal deletions) (from UniProt F8W463 1-389)

EC50 [2]: ~800 µM
Compound: Nc1ncnc2c1ncn2[C@@H]1O[C@H](COP(=O)(O)OP(=O)(O)OP(=O)(O)O)[C@@H](O)[C@H]1O [ATP]

stoichiometry N [3]: 3
Compound: ΔzfP2X4-B (ΔzfP2X4-A with C51F/N78K/N187R) (from UniProt F8W463 1-389) (receptor)
